Numbering of substitutions follows the chain as printed.

The chains are these.
B1: NCPT-1.M4: His6+NCPT-1, SEQ ID NO: 8 (protein)
chain: HHHHHHTLSSPNSKNEKALGRKINSWESSRSGHSFLSNLHLRNGELVIHEKGFYYIYSQTYFRFQEEIKENTKNDKQMVQYIYKYTSYPDPILLMKSARNSCWSKDAEYGLYSIYQGGIFELKENDRIFVSVTNEHLIDMDHEASFFGAFLVGGGGGGRVAAHITGTRGRSNT
modifications: NCPT-1.M4 polypeptide sequence
B2: NCPT-1.M6: MG+His6+NCPT-1 with linker GGSGGGG, SEQ ID NO: 10 (protein)
chain: MGHHHHHHTLSSPNSKNEKALGRKINSWESSRSGHSFLSNLHLRNGELVIHEKGFYYIYSQTYFRFQEEIKENTKNDKQMVQYIYKYTSYPDPILLMKSARNSCWSKDAEYGLYSIYQGGIFELKENDRIFVSVTNEHLIDMDHEASFFGAFLVGGGSGGGGRVAAHITGTRGRSNT
modifications: NCPT-1.M6 polypeptide sequence
B3: NCPT-1.M3: MG+His3+NCPT-1, SEQ ID NO: 7 (protein)
chain: MGHHHTLSSPNSKNEKALGRKINSWESSRSGHSFLSNLHLRNGELVIHEKGFYYIYSQTYFRFQEEIKENTKNDKQMVQYIYKYTSYPDPILLMKSARNSCWSKDAEYGLYSIYQGGIFELKENDRIFVSVTNEHLIDMDHEASFFGAFLVGGGGGGRVAAHITGTRGRSNT
modifications: NCPT-1.M3 polypeptide sequence
B4: NCPT-2.M11: MG+His6+NCPT-2, SEQ ID NO: 15 (protein)
chain: MGHHHHHHTLSSPNSKNEKALGRKINSWESSRSGHSFLSNLHLRNGELVIHEKGFYYIYSQTYFRFQEEIKENTKNDKQMVQYIYKYTSYPDPILLMKSARNSCWSKDAEYGLYSIYQGGIFELKENDRIFVSVTNEHLIDMDHEASFFGAFLVGGGGGGTSEETISTVQEKQQNISPLVRERGPQRVAAHITGTRGRSNT
modifications: NCPT-2.M11 polypeptide sequence
B5: NCPT-3.M12: MG+His6+NCPT-3, SEQ ID NO: 16 (protein)
chain: MGHHHHHHTLSSPNSKNEKALGRKINSWESSRSGHSFLSNLHLRNGELVIHEKGFYYIYSQTYFRFQEEIKENTKNDKQMVQYIYKYTSYPDPILLMKSARNSCWSKDAEYGLYSIYQGGIFELKENDRIFVSVTNEHLIDMDHEASFFGAFLVGGGGGGVRERGPQRVAAHITGTRGRSNT
modifications: NCPT-3.M12 polypeptide sequence
B6: NCPT-1.M10: MG+NCPT-1+aa136-141, SEQ ID NO: 14 (protein)
chain: MGTLSSPNSKNEKALGRKINSWESSRSGHSFLSNLHLRNGELVIHEKGFYYIYSQTYFRFQEEIKENTKNDKQMVQYIYKYTSYPDPILLMKSARNSCWSKDAEYGLYSIYQGGIFELKENDRIFVSVTNEHLIDMDHEASFFGAFLVGGGGGGRVAAHITGTRGRSNTLSSPNS
modifications: NCPT-1.M10 polypeptide sequence
B7: NCPT-1.M2: MG+NCPT-1+His6, SEQ ID NO: 6 (protein)
chain: B6 chain with L170H, S171H, S172H, P173H, N174H, S175H
modifications: NCPT-1.M2 polypeptide sequence
B8: NCPT-1.M8: MG+129-134+NCPT-1, SEQ ID NO: 12 (protein)
chain: MGTRGRSNTLSSPNSKNEKALGRKINSWESSRSGHSFLSNLHLRNGELVIHEKGFYYIYSQTYFRFQEEIKENTKNDKQMVQYIYKYTSYPDPILLMKSARNSCWSKDAEYGLYSIYQGGIFELKENDRIFVSVTNEHLIDMDHEASFFGAFLVGGGGGGRVAAHITGTRGRSNT
modifications: NCPT-1.M8 polypeptide sequence
B9: NCPT-1.M5: MG+His6+NCPT-1 with linker GSGGG, SEQ ID NO: 9 (protein)
chain: B8 chain with T3H, R4H, G5H, R6H, S7H, N8H, G157S
modifications: NCPT-1.M5 polypeptide sequence
B10: NCPT-1.M9: MG+Asn6+NCPT-1, SEQ ID NO: 13 (protein)
chain: B8 chain with T3N, R4N, G5N, R6N, S7N
modifications: NCPT-1.M9 polypeptide sequence
B11: NCPT-1.M7: MG+His9+NCPT-1, SEQ ID NO: 11 (protein)
chain: MGHHHHHHHHHTLSSPNSKNEKALGRKINSWESSRSGHSFLSNLHLRNGELVIHEKGFYYIYSQTYFRFQEEIKENTKNDKQMVQYIYKYTSYPDPILLMKSARNSCWSKDAEYGLYSIYQGGIFELKENDRIFVSVTNEHLIDMDHEASFFGAFLVGGGGGGRVAAHITGTRGRSNT
modifications: NCPT-1.M7 polypeptide sequence
B12: wtTRAIL: wild-type TRAIL (protein, UniProt P50591 1-281, looked up)
Tumor necrosis factor ligand …: MAMMEVQGGPSLGQTCVLIVIFTVLLQSLCVAVTYVYFTNELKQMQDKYSKSGIACFLKEDDSYWDPNDEESMNSPCWQVKWQLRQLVRKMILRTSEETISTVQEKQQNISPLVRERGPQRVAAHITGTRGRSNTLSSPNSKNEKALGRKINSWESSRSGHSFLSNLHLRNGELVIHEKGFYYIYSQTYFRFQEEIKENTKNDKQMVQYIYKYTSYPDPILLMKSARNSCWSKDAEYGLYSIYQGGIFELKENDRIFVSVTNEHLIDMDHEASFFGAFLVG

One experiment concerns NCI-H460 cells. Nature of the experiment: Assay of killing activity on lung cancer cell line (crystal violet, IC50). It counts as cell-based, human. The following applies: 20-24 hours, crystal violet. As for the experimental part:
The NCI-H460 cells (ATCC) were cultured in flasks until logarithmic growth phase, digested with 0.25% trypsin (Amresco), collected by centrifugation (1000 rpm, 5 min), resuspended in RPMI1640 medium (Invitrogen) containing 3% fetal bovine serum (FBS), counted and adjusted to 1.5×10^5/ml cell suspension, added into 96-well culture plates (Nunc) at 100 μl/well, and incubated at 37° C. in 5% CO2 incubator overnight. The sample to be tested was diluted to a certain concentration with 1640 medium containing 3% FBS, and further diluted at 4-fold dilutions (8 dilutions). The supernatant in the culture plate was discarded, and serial dilutions of the sample to be tested was added into the plate at 100 μl/well with a negative control and blank control set aside, incubated at 37° C. under 5% CO2 for 20-24 hours. Following examination under microscope, the supernatant was discarded, each well was added 50 μl 0.05% crystal violet solution (50 mg crystal violet was dissolved in 20 ml anhydrous ethanol, and water was added to the volume of 100 ml, then stored at room temperature) and stained for 3-5 minutes. The crystal violet was carefully washed with flowing water, the remaining water was removed by spin-drying, a destaining solution (50 ml distilled water, 50 ml anhydrous ethanol, and 0.1 ml glacial acetic acid were thoroughly mixed and stored at room temperature) was added at 100 μl/well, then the reading at OD570 was measured on a microplate reader (Bio-Rad 680) (reference wavelength of 630 nm). The inhibitory concentration 50 (IC50) of each sample was calculated by a four-parameter Logistic fitting using Sigmaplot10.0 software. The IC50 for CPT and each mutant of NCPT-1, NCPT-2, and NCPT-3 were calculated, and the activity change of each mutant was represented as a ratio of the IC50 of each mutant to that of CPT (Table 1).
As for B1, the “Ratio of IC50 of mutants to IC50 of CPT (H460 cells)” value (shortened to “Ratio of IC50 of mutants”) is 0.12.
For the molecule B2, the “Ratio of IC50 of mutants” value is recorded as 0.15.
On the same count and under the same terms, with B3 the figure was 0.4.
On to B4, for which the “Ratio of IC50 of mutants” value was found to be 0.47.
For B5, the “Ratio of IC50 of mutants” value came to 0.38.
As for B6, the “Ratio of IC50 of mutants” value stood at 1.2.
For the molecule B7, the “Ratio of IC50 of mutants” value turned out to be 0.1.
Turning to B8, the “Ratio of IC50 of mutants” value was determined as 1.5.
Consider B9, for which the “Ratio of IC50 of mutants” value turned out to be 0.15.
On the same count and under the same terms, the value for B10 was 3.0.
As to B11, the “Ratio of IC50 of mutants” value is recorded as 0.3.

The same experiment, now with this note: based on IC50.
In the case of B1, the “killing activity compared to that of CPT” value is “significantly higher than that of CPT”.
B2: the “killing activity compared to that of CPT” value is reported as “significantly higher than that of CPT”.
For B3, the “killing activity compared to that of CPT” value is recorded as “significantly higher than that of CPT”.
Regarding B4, the “killing activity compared to that of CPT” value was “significantly higher than that of CPT”.
In the case of B5, the “killing activity compared to that of CPT” value is reported as “significantly higher than that of CPT”.
On the same count and under the same terms, the value for B6 was “slightly decreased compared to that of CPT”; that for B7 was “significantly higher than that of CPT”.
As to B8, the “killing activity compared to that of CPT” value is “significantly decreased compared to that of CPT”.
As to B9, the “killing activity compared to that of CPT” value is on record as “significantly higher than that of CPT”.
As for B10, the “killing activity compared to that of CPT” value is recorded as “significantly decreased compared to that of CPT”.
As to B11, the “killing activity compared to that of CPT” value was “significantly higher than that of CPT”.

The subject of the next experiment is human COLO 205 xenograft tumor. Kind of experiment: Inhibitory activity on human colon cancer xenograft tumors. It counts as in vivo, Balb/c nu mice. The note with it: 15 mg/kg i.p. once a day for 10 days. As for the experimental part: 4 to 5 weeks old Balb/c nu mice ♂ (Institute of Experimental Animals, Chinese Academy of Medical Sciences) were subcutaneously inoculated with COLO 205 human colon tumor tissue pieces. When the tumor grew to the volume of 120 mm3, the tumor-bearing mice were divided into 4 groups (n=7/group), which were intraperitoneally injected with normal saline (negative control group), NCPT-1.M1 5 mg/kg, NCPT-1.M1 15 mg/kg and wtTRAIL 15 mg/kg once a day for 10 consecutive days. […] During the experiment, the tumor length diameter (a) and wide diameter (b) were measured every two days with a vernier caliper, and tumor volume (TV) was calculated according to the following formula: TV=½×a×b^2; From the above, the relative tumor volume (RTV) was calculated according to following formula: RTV=Vt/V0. Wherein V0 is the tumor volume measured on the day of the administration, but before administration (i.e., d0), and Vt is the tumor volume measured every time. The relative tumor proliferation rate T/C (%) is used as an evaluation index. Evaluation criteria: T/C (%)>40% means no effect; T/C (%)≦40% and the statistical significance of P<0.05 means being effective.
T/C %=RTVT/RTVC*100%. (RTVT: RTV of the treatment group; […]: RTV of the negative control group).
In general terms: In xenograft studies the graft and the host belong to different species.
Regarding B12, the “relative tumor volume RTV” value came to 1.58 and the “tumor proliferation rate T/C(%)” value is reported as 33.98%.

The experiment is the same for the next values; noted with them: 15 mg/kg i.p. once a day for 10 days; beginning.
Take B12: the “Tumor volume TV beginning” value amounted to 127 ± 38.3 mm^3.

The experiment is the same for the next values; noted with them: 15 mg/kg i.p. once a day for 10 days; ending.
As to B12, the “Tumor volume TV ending” value amounted to 212 mm^3.

The same experiment, now with this note: 15 mg/kg, COLO 205 xenograft, P<0.05.
Take B12: the “efficacy compared with NCPT-1.M1” value is given as “significantly weaker than that of NCPT-1.M1 with the same dosage”.

Still in this experiment, the particulars now being: both dosage groups of NCPT-1.M1 (5, 15 mg/kg), wtTRAIL 15 mg/kg.
As for B12, the “evaluation of efficacy (T/C ≦40% and P<0.05 means being effective)” value is on record as “effective”.

(Values after patent US9289468B2, “Fusion protein comprising circularly permuted form of trail/Apo2L, coding gene and use thereof” (Beijing Sunbio Biotech Co. Ltd., priority 2011, dated 2016).)
